B1: P1-CN crRNA + P1 target dsDNA (mixed)
RNA: UAAUUUCUACUAAGUGUAGAUAACCUGAUCAAGAUACCCAA
DNA 1: CTTAGAGTTCTTTAAACCTGATCAAGATACCCAACCAAAC
DNA 2: TGTTGTTTGGTTGGGTATCTTGATCAGGTTTAAAGAACTCTAAG

target: dCas12a (DNase-dead; LbCas12a implied) (Lachnospiraceae bacterium? (only 'Lb' …, UniProt A0A5S8WF58 1-1228, D832A); test: EMSA

Row | Binder | binding result
1 | B1 | binds

target: LbCas12a (Lachnospiraceae bacterium? (only 'Lb' …, UniProt A0A5S8WF58 1-1228)); test: SPR

Row | Binder | binding result
2 | UAAUUUCUACUAAGUGUAGAUAACCUGAUCAAGAUACCCAA (structured_RNA) [P1-CN crRNA] | binds
3 | CAAUGUCUACUCAGCGUAGAUAACCUGAUCAAGAUACCCAA (structured_RNA) [P1-FL1 crRNA] | binds
4 | GAAUGUCUACUAAGUGUAGAUAACCUGAUCAAGAUACCCAA (structured_RNA) [P1-F2 crRNA] | binds
5 | GAAUGUCUACUCAGCGUAGAUAACCUGAUCAAGAUACCCAA (structured_RNA) [P1-FL2 crRNA] | binds
6 | UAAUUUCUACAAAACGUAGAUAACCUGAUCAAGAUACCCAA (structured_RNA) [P1-L1 crRNA] | binds
7 | UAAUUUCUACUCAGCGUAGAUAACCUGAUCAAGAUACCCAA (structured_RNA) [P1-L2 crRNA] | binds
8 | CAAUGUCUACUAAGUGUAGAUAACCUGAUCAAGAUACCCAA (structured_RNA) [P1-F1 crRNA] | binds
